B1: PPP2R2B (parent)
chain: RNTKRDVTLEASRENSKPRAILKP

Variants of: B1
Assay: protein stability index of a GFP-peptide fusion (GPS, HEK-293T) (PSI 1-6); higher = more stable
Conditions: c terminus: a fixed tail appended
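Also: lentivirally expressed fusions sorted by FACS into six bins by GFP to DsRed ratio, PSI derived from sequencing read proportions per bin multiplied by bin number.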

Protein stability index of substitutions, site by site:
A20: R 4.66; S 4.48; P 4.3; Y 4.1; C 4.17; L 4.19; W 3.3; T 4.49; I 4.32; N 4.64; E 5
R5: Y 4.26; W 3.87; A 5.17; F 4.44; M 3.86; G 5.07; I 4.19; L 4.4
N2: K 4.51; T 4.42; A 4.31; L 3.72; G 4.81; E 4.82; Q 4.06; S 4.62
E10: Y 4; C 3.86; K 4.52; Q 4.33; A 4.52; N 4.25
P18: F 3.79; N 4.55; I 4.27; M 4.58; H 4.11; Q 4.76
L9: E 4.78; H 4.46; V 4.59; K 4.26; Y 4.52; S 4.89
T8: W 3.66; L 4.62; P 4.76; F 3.88; N 4.98; A 4.72; G 4.54; V 4.25; D 5.02; I 4.35
R1: V 4.44; P 4.27; G 4.9; F 4.29; Q 4.81; D 4.97
K23: M 3.94; Y 4.38; A 4.5; W 4.33; H 4.57; L 3.91; I 4.04
A11: Q 4.28; P 4.23; V 4.49; L 3.35; H 4.8; E 5.24; D 4.78; G 4.49
S16: N 4.48; F 4.38; I 4.19; V 4.24; M 4.53
L22: S 4.9; H 4.8; C 4.47; N 4.79; F 4.5; T 4.49
V7: P 4.98; F 4.43; T 4.81; N 4.76; S 4.58; I 4.25
N15: G 4.49; R 4.22; F 4.66; K 4.82; Q 4.73; I 4.59; E 4.92; L 4.53; V 4.45; D 4.77
R19: F 4.12; S 4.41; A 4.2; M 4.44; P 4.79; H 4.46
S12: I 4.07; W 3.79; K 4.34; N 4.43; Q 4.42; V 4.33; L 3.96; A 4.12
P24: D 3.69; I 3.32; E 4.74; G 4.65
K4: L 4.61; G 4.61; D 4.72; I 4.29; H 4.84; P 4.88; Y 4.42
R13: P 4.46; H 5.06; K 4.69; M 4.64; L 4.44; Y 4.37; S 4.91; W 3.56
T3: C 4.55; A 4.87; W 4.05; F 4.17; E 4.88; Y 3.84
K17: N 4.5; W 4.3; Y 4.14; R 4.38; I 4.33; C 4.18; M 4.69; P 5.27; S 4.04; E 5.13
D6: I 3.64; W 3.27; A 4.64; S 4.55; P 3.81; M 4.33; H 4.49; N 4.55
I21: Q 4.8; V 4.6; H 4.52; N 4.68; L 4.68; M 4.67; T 4.5

— the supplement of paper PMC10567573
